Experimental findings from article PMC12594171, “DKK3-LRP1 complex and a chemical inhibitor regulate Aβ clearance in models of Alzheimer’s disease” (Science Advances, 2025) are described below.

One test deals with T1, DKK1-AP (UniProt O94907 32-266).
T1 construct: DKK1 cDNA cloned into the pAPtag-5 vector (GenHunter, QV5); also called DKK1 tagged with alkaline phosphatase (AP) and 6 × His; source: HEK293, transfected, conditioned medium; purified with Ni-NTA Agarose beads; not shown: alkaline phosphatase (AP), C-terminal, kept
T1 sequence (looked up): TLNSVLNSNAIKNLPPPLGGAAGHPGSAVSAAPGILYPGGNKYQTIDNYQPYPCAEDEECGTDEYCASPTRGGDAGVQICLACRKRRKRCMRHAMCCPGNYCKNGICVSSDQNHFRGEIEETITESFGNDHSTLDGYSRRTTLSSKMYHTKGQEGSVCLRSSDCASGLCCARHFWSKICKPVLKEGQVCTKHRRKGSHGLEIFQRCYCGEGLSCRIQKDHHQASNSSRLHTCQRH
As to the kind of experiment: SPR; Biacore T200; purified mLRPIV-6×His (15 μM) amine-coupled to a CM5 chip; DKK1 or DKK3 at 6.25 to 200 nM. To be noted: both partners purified. In general terms: In SPR one partner is held on a chip, and binding of the other changes the refractive index at the surface.

The target in a further test is T2, DKK3-AP (UniProt Q9UBP4 22-350).
T2 construct: DKK3 cDNA cloned into the pAPtag-5 vector (GenHunter, QV5); also called DKK3 tagged with alkaline phosphatase (AP) and 6 × His; source: HEK293, transfected, conditioned medium; purified with Ni-NTA Agarose beads; not shown: alkaline phosphatase (AP), C-terminal, kept
T2 sequence (Q9UBP4 22-350): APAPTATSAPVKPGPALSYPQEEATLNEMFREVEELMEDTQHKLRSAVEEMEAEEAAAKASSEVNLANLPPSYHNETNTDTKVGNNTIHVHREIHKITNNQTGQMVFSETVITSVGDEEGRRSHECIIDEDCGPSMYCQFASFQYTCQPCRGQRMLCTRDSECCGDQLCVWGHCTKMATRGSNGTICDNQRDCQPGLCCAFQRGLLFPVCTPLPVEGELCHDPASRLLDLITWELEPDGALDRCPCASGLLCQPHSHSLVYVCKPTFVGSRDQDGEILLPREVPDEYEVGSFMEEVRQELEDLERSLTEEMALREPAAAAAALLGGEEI
The test is described as above. To be noted: both partners purified.

B1: mLRPIV-6 × His, prokaryotically expressed (domain or fragment)
chain: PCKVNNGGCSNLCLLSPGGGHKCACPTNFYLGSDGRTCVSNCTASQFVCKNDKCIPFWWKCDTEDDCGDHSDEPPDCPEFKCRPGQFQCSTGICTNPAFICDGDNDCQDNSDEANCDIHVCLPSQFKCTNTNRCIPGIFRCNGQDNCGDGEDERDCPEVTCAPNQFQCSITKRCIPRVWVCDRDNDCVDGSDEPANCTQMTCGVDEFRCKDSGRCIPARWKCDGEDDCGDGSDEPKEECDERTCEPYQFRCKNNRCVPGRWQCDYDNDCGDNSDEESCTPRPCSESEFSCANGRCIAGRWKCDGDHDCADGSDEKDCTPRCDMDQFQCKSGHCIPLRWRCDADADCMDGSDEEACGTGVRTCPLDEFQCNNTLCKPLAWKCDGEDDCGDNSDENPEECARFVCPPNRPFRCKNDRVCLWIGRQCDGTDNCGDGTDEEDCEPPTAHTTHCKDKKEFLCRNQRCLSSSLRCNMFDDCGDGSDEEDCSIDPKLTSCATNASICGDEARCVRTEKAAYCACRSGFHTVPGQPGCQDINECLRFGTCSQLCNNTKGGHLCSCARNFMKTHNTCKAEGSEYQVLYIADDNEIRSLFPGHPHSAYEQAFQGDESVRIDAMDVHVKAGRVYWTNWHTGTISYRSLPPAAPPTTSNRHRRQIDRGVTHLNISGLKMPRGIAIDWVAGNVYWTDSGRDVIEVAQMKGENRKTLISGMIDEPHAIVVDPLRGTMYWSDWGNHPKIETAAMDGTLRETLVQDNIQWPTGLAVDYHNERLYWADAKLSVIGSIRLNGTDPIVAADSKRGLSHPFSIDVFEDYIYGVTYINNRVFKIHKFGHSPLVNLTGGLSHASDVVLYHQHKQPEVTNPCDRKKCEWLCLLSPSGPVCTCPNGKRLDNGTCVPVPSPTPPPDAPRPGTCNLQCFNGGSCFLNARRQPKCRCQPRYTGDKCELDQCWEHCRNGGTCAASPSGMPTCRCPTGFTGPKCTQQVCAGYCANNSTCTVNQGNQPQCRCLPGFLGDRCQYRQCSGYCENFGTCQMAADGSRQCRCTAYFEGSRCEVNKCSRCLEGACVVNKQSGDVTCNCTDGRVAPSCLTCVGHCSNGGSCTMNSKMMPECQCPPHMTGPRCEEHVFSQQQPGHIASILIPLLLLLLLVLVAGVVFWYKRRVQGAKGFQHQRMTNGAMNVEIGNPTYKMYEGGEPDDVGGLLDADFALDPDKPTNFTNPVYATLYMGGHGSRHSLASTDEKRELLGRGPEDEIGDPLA
What is called Kd is the free concentration of one partner at which half of the binding sites on the other are occupied at equilibrium, for simple one-to-one binding. A lower Kd goes with tighter binding. As for B1, the dissociation constant (Kd) worked out at 82.3 nM with DKK1-AP and 35.5 nM with DKK3-AP.
